In PMC7610366 (Nature chemical biology, 2020):
One block for each molecule: values may come before it.

Assays:
[1] = target: 6xHis-tagged RcsF (E. coli) (UniProt P69411); assay: BLI
[2] = target: Untagged BamA (E. coli), P0A940; assay: BLI; conditions: remark: other sources report otherwise
[3] = target: BamAB sub-complex (E. coli, UniProt P0A940;P77774, lipid moiety); assay: native gel or EMSA
[4] = target: BamABCDE holocomplex (E. coli, UniProt P0A940;P77774;P0A903;P0AC02;P0A937, lipid moiety | lipid moiety | lipid moiety | lipid moiety); assay: native gel or EMSA
Sequence of BamABCDE holocomplex (P77774 20-392, chain 2 of 4): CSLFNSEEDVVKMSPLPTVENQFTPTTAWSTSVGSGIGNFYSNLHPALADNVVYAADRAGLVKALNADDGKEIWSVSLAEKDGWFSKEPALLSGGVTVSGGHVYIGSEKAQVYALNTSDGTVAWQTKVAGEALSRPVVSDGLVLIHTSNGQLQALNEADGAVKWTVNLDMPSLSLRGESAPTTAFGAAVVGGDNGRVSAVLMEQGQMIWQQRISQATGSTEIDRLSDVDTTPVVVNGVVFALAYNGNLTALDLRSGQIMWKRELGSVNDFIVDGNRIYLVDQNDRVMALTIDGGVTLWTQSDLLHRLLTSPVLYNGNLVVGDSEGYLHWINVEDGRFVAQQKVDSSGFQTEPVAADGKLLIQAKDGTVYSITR
Sequence of BamABCDE holocomplex (P0A903 25-344, chain 3 of 4): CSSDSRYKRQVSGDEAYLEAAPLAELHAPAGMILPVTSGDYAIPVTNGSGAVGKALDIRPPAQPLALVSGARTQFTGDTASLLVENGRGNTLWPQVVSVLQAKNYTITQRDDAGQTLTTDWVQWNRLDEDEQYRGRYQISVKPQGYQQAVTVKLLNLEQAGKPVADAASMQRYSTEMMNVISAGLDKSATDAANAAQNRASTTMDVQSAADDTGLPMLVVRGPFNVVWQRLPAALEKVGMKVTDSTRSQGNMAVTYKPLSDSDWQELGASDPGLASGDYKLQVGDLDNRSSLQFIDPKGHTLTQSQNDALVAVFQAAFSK
Sequence of BamABCDE holocomplex (P0AC02 20-245, chain 4 of 4): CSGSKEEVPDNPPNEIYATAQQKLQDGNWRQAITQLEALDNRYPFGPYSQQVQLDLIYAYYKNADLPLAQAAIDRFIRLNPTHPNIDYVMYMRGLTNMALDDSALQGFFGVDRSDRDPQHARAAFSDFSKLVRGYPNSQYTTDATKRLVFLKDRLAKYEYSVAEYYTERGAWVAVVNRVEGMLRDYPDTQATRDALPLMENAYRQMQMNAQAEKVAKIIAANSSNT
Sequence of BamABCDE holocomplex (P0A937 20-113, chain 5 of 4): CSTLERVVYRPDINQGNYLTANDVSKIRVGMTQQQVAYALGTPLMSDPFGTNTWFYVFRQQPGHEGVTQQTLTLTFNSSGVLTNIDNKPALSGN

Sequence of BamAB sub-complex (P77774 20-392, one chain of several): as the sequence (P77774 20-392, chain 2 of 4) above

Kd [1]: 0.42 µM
Molecule: Untagged BamA (from UniProt P0A940 21-810) (natural protein; other documents disagree on this pair)

Kd [2]: 0.35 µM
B1: 6xHis-tagged RcsF, P69411 16-134 (natural protein)
chain: CSMLSRSPVEPVQSTAPQPKAEPAKPKAPRATPVRIYTNAEELVGKPFRDLGEVSGDSCQASNQDSPPSIPTARKRMQINASKMKANAVLLHSCEVTSGTPGCYRQAVCIGSALNITAK
modifications: here or on the partner: biotin (EZ-Link NHS-PEG4-biotin) where immobilised on streptavidin tips

binding result [3]: binds | binding result [4]: binds
B2: RcsF (natural protein)
chain: CSMLSRSPVEPVQSTAPQPKAEPAKPKAPRATPVRIYTNAEELVGKPFRDLGEVSGDSCQASNQDSPPSIPTARKRMQINASKMKANAVLLHSCEVTSGTPGCYRQAVCIGSALNITAK
modifications: lipid anchor
